Patent publication US20110008340A1 (published 2011)
One block for each binder: values may come before it.

Legend:
human C3b = human C3b (human, UniProt P01024 23-667; P01024 749-1663, limits assumed); experiment: cell-based or functional assay
TSR5 peptide = target: T1, TSR5 peptide (human); experiment: ELISA on plate-bound peptide
T1 construct: Synthetic peptide 'corresponding to TSR5'; also called TSR5 segment of properdin
T1 peptide: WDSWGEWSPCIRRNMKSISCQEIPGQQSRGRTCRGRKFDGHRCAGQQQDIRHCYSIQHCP
Procedure: (§1) Screening Assay: Microtiter plates were coated with peptide⁷¹⁻¹¹⁰. (2.0 μg/50 μl per well), TSR5 and TSR6 peptides in phosphate buffered saline (PBS) overnight at 4° C. After aspirating the peptide solutions, the wells were blocked with PBS containing 1% bovine serum albumin (BSA) for 2 hours at room temperature. Wells without peptide coating served as background controls. […] The plate was incubated at room temperature for 1-hour. The plate developed using standard ELISA methods described above.

TSR6 peptide = target: T2, TSR6 peptide (human); experiment: ELISA on plate-bound peptide
T2 construct: Synthetic peptide 'corresponding to TSR6'; also called TSR6 segment of properdin
T2 peptide: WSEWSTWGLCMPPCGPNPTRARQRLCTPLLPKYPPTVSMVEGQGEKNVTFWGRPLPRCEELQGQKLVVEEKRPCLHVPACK
Procedure: as §1

IC50 of inhibition of MAC (C5b-9) formation, LPS-coated wells, 10% normal human serum (human C3b): ~50 µg/mL
B1: Properdin peptide RYRRCVGWNG (99-108) (peptide)
peptide: RYRRCVGWNG

binding result (TSR5 peptide): no binding
binding result (TSR6 peptide): no binding
B2: MoAb^71-110 (antibody, V domains shown)
VH: QVLLQQSAPELARPGASVKMSCTASGYIFTNYPIHWVKQRPGQGLEWIGFIDPGGGYDEPDERFRDRATLTADKSSSTAYMQLSSLTSEDSAIYYCARRGGGYYLDYWGQDTTLTVSA
VL: SIVMTQTPKFLLVSAGDRITITCKASQSVNNDVAWYQQKPGQSPKLLIYYASNRYTGVPDRFTGSGYGTDFTFTITTVKAEDLAVYFCQQDYSSPLTFGAGTKLELK
notes: Mouse monoclonal antibody from a hybridoma; also called MoAbB^71-110; anti properdin antibody clone MoAb^71-110
